Residue numbers refer to the chain shown, from its start.

3 molecules from PMC8313134, “Jasmonate‐ and abscisic acid‐activated AaGSW1‐AaTCP15/AaORA transcriptional cascade promotes artemisinin biosynthesis in Artemisia annua” can be followed below.

Holding throughout (conditions): protein: recombinant; tags: His-TF (trigger factor), pCold-TF; chain copies: 2; blunt
In data set [1] the target is T1, AaTCP15 (Artemisia annua, UniProt A0A8E3YC86 1-384). Kind of data set: EMSA; cold Aq competitor reduces shift; not given; EMSA as described in Ma et al. 2018; cold competitor 10x, 20x, 40x. In general terms: Mobility shift assays separate free from complexed probe on a gel.
T1 sequence (A0A8E3YC86 entry or part of it): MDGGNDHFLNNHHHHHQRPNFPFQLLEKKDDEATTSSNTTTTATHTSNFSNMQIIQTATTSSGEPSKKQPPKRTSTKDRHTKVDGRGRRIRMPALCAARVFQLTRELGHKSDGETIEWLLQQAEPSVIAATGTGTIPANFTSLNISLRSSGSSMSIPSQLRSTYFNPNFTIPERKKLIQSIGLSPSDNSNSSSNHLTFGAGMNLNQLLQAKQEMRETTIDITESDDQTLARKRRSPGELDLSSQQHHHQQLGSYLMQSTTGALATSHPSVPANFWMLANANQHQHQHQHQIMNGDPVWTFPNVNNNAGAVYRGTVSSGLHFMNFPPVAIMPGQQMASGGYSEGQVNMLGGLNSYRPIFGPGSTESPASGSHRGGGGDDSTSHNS
Data set [2] concerns the target T1, AaTCP15. As to the kind of experiment: EMSA; cold Dq competitor reduces shift; not given; EMSA as described in Ma et al. 2018; cold competitor 10x, 20x, 40x.
Data set [3] concerns the target T1, AaTCP15. Kind of data set: EMSA; not given; EMSA as described in Ma et al. 2018; cold competitor 10x, 20x, 40x.

B1: Aq probe (ALDH1 promoter) (dsDNA)
DNA 1: GGTTGGTTGCATTATCTGGCCCCACCGTAAACAATCAAATGC
DNA 2: GCATTTGATTGTTTACGGTGGGGCCAGATAATGCAACCAACC
Regarding B1, the binding result with AaTCP15 [1] was “binds”.

B2: Dq probe (DBR2 promoter) (dsDNA)
DNA 1: GTCGCTAAACTTGCCACGGTCCCACTTTTTCAACTCTTATTA
DNA 2: TAATAAGAGTTGAAAAAGTGGGACCGTGGCAAGTTTAGCGAC
Take B2: the binding result with AaTCP15 [2] is reported as “binds”.

B3: Dq mutated probe (dsDNA)
DNA 1: B2 DNA 1 with C21A, C22A, C23A, A24C, C25A
DNA 2: B2 DNA 2 with G18T, T19G, G20T, G21T, G22T
B3: the binding result with AaTCP15 [3] is “no binding”.
